# Test results: US20120208770A1
# Target: vimentin of SCCVII cells (cell-surface protein of murine squamous cell carcinoma cells and SCCVII tumors in C3H mice) (mouse (murine SCCVII cells)) (UniProt P20152)
# Test: cell-based or functional assay
# UniProt P20152, sequence (P20152 2-466): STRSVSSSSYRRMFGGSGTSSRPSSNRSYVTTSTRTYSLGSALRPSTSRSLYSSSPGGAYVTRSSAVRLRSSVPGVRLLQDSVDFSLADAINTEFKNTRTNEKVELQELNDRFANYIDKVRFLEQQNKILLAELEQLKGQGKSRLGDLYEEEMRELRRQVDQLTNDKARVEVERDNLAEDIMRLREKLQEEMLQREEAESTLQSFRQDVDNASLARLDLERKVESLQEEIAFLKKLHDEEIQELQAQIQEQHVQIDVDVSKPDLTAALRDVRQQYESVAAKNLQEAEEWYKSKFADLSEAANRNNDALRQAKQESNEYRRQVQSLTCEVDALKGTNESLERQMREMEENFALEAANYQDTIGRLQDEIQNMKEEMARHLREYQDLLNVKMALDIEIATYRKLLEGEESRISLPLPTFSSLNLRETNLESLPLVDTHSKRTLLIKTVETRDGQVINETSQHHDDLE
binder,measurement,value
H-VNTANSTGG-biotin [CHP-biotin (NH2-…-biotin)],"accumulation of peptide-biotin in SCCVII tumor (positive per field, DAB staining), co-administered with anti-vimentin (positive per field)",1.2
same,"accumulation of peptide-biotin in SCCVII tumor (positive per field, DAB staining), without anti-vimentin (positive per field)",19.6
